T1: Recombinant human CD40L (human, UniProt P29965 108-261, limits assumed)
T1 construct: also called CD40 ligand
T1 sequence (looked up): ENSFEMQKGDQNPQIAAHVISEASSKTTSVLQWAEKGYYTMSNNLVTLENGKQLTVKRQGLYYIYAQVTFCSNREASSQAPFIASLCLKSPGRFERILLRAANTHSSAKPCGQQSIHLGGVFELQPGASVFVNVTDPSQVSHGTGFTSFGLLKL

B1: DOM-36 (other)
VL: DIQMTQSPSSLSASVGDRVTITCRASQDIDHNLEWYQQKPGKAPKLLIYDSSMLQSGVPSRFSGSGSGTDFTLTISSLQPEDFATYYCQQYHSIPVTFGQGTKVEIKR
notes: Vk dAb
B2: DOM-35 (other)
VL: DIQMTQSPSSLSASVGDRVTITCRASQFIGDSLSWYQQKPGKAPKLLIYFSSILQSGVPSRFSGSGSGTDFTLTISSLQPEDFATYYCQQYMDIPITFGQGTKVEIKR
notes: Vk dAb
B3: DOM-37 (other)
VL: DIQMTQSPSSLSASVGDRVTITCRASQQIETNLEWYQQKPGKAPKLLIYDGSWLQSGVPSRFSGSGSGTDFTLTISSLQPEDFATYYCQQYHSLPATFGQGTKVEIKR
notes: Vk dAb
B4: DOM-38 (other)
VL: DIQMTQSPSSLSASVGDRVTITCRASQDIGNNLEWYQQKPGKAPRLLIYHGSWLQSGVPSRFSGSGSGTDFTLTISSLQPEDFATYYCQQYDFNPTTFGQGTKVEIKR
notes: Vk dAb
B5: DOM-47 (other)
VL: DIQMTQSPSSLSASVGDRVTITCRASQWIGDSLSWYQQKPGKAPKLLIYFGSYLQSGVPSRFSGSGSGTDFTLTISSLQPEDFATYYCQQYLHTPSTFGQGTKVEIKR
notes: Vk dAb
B6: DOM-49 (other)
VL: DVQMTQSPSSLSASVGDRVTITCRASQWIGDSLSWYQQKPGKAPKLLIYFGSYLQSGVPSRFSGSGSGTDFTLTISSLQPEDFATYYCQQYMSAPSTFGQGTKVEIKR
notes: Vk dAb
B7: DOM-52 (other)
VL: DIQMTQSPSSLSASVGDRVTITCRASQDIGSALRWYQQKPGKAPKLLIYLGSDLQSGVPSRFSGSGSGTDFTLTISSLQPEDFATYYCQQTQYFPTTFGQGTKVEIKR
notes: Vk dAb
B8: DOM-86 (other)
VL: DIQMTQSPSSLSASVGDRVTITCRASQDIGDALFWYQQKPGKAPKLLIYYSSMLQSGVPSRFSGGGSGTDFTLTISSLQPEDFATYYCQQRHSTPATFGQGTKVEIKR
notes: Vk dAb
B9: DOM-116 (other)
VL: DIQMTQSPSSLSASVGDRVTITCRASQPIGPDLLWYQQKPGKAPKLLIYQTSILQSGVPSRFSGSGSGTDFTLTISSLQPEDFATYYCQQYWAFPVTFGQGTKVEIKR
notes: Vk dAb
B10: DOM.89 (other)
VL: DIQMTQSPASLSASVGDRVTITCRASQDIDPMLRWYQQKPGKAPKLLIYAGSILQSGVPSRFSGSGSGTDFTLTISSLQPEDFATYYCQQTLVTPYTFGQGTKVEIKR
notes: Vk dAb
B11: DOM.91 (other)
VL: DIQMTQSPSSLSASVGDRVTITCRASQQISDELNWYQQKPGKAPKLLIYAVSILQSGVPSRFSGSGSGTDFTLTISSLQPEDFATYYCQQWLSFPSTFGQGTKVEIKR
notes: Vk dAb
B12: DOM.101 (other)
VL: DIQMTQSPSSLSASVGDRVTITCRASQAIGHRLRWYQQKPGKAPKLLIYHRSKLQSGVPSRFSGSGSGTDFTLTISSLQPEDFATYYCQQVALFPYTFGQGTKVEIKR
notes: Vk dAb
B13: DOM.103 (other)
VL: DIQMTQSPSSLSASVGDRVTITCRASQAIGHRLRWYQQKPGKAPKLLIYHRSKLQSGVPSRFSGSGSGTDFTLTISSLQPEDFATYYCQQVRAVPYTFGQGTKVEIKR
notes: Vk dAb
B14: DOM.104 (other)
VL: DIQMTQSPSSLSASVGDRVTITCRASQAIGHRLRWYQQKPGKAPKLLIYHRSKLQSGVPSRFSGSGSGTDFTLTISSLQPEDFATYYCQQVRFSPYTFGQGTKVEIKR
notes: Vk dAb
B15: DOM.105 (other)
VL: DIQMTQSPSSLSASVGDRVTITCRASQAIGHRLRWYQQKPGKAPKLLIYHRSKLQSGVPSRFSGSGSGTDFTLTISSLQPEDFATYYCQQSYARPVTFGQGTKVEIKR
notes: Vk dAb
B16: DOM.106 (other)
VL: DIQMTQSPSSLSASVGDRVTITCRASQSINHRLYWYQQKPGKAPKLLIYHRSRLQSGVPSRFSGSGSGTDFTLTISSLQPEDFATYYCQQYKVRPNTFGQGTKVEIKR
notes: Vk dAb
B17: DOM.107 (other)
VL: DIQMTQSPSSLSASVGDRVTITCRASQAIGHRLRWYQQKPGKAPKLLIYHRSKLQSGVPSRFSGSGSGTDFTLTISSLQPEDFATYYCQQTYSSPHTFGQGTKVEIKR
notes: Vk dAb
B18: DOM.108 (other)
VL: DIQMTQSPSSLSASVGDRVTITCRASQAIGHRLRWYQQKPGKAPKLLIYHRSKLQSGVPSRFSGSGSGTDFTLTISSLQPEDFATYYCQQRAVRPFTFGQGTKVEIKR
notes: Vk dAb
B19: DOM.109 (other)
VL: DIQMTQSPSSLSASVGDRVTITCRASQAIGHRLRWYQQKPGKAPKLLIYHRSKLQSGVPSRFSGSGSGTDFTLTISSLQPEDFATYYCQQTYYRPLTFGQGTKVEIKR
notes: Vk dAb
B20: DOM.110 (other)
VL: DIQMTQSPASLSASVGDRVTITCRASQDIDPMLRWYQQKPGKAPKLLIYAGSILQSGVPSRFSGSGSGTDFTLTISSLQPEDFATYYCQQTSIRPYTFGQGTKVEIKR
notes: Vk dAb
B21: DOM.142 (other)
VL: DIQMTQSPSSLSASVGDRVTITCRASQFIGDSLSWYQQKPGKAPKLLIYFSSILQSGVPSRFSGSGSGTDFTLTISSLQPEDFATYYCQQYHTSPTTFGRGTKVKIKR
notes: Vk dAb
B22: DOM.143 (other)
VL: DIQMTQSPSSLSASVGDRVTITCRASQTIETNLEWYQQKPGKAPKLLIYDSSQLQSGVPSRFSGSGSGTDFTLTISSLQPEDLATYYCQQYHGYPTTFGQGTKVEIKR
notes: Vk dAb
B23: DOM.144 (other)
VL: DIQMTQSPSSLSASVGDRVTITCRASQMIDQDLEWYQQKPGKAPKLLIYNASWLQSGVPSRFSGSGSGTDFTLTISSLQPEDFATYYCQQYHGYPITFGQGTKVEIKR
notes: Vk dAb
B24: DOM.147 (other)
VL: DIQMTQSPSSLSASVGDRVTITCRASQEIETNLEWYQQKPGKAPKLLIYDSSHLQSGVPSRFSGSGSGTDFTLTISSLQPEDFATYYCQQYHQNPPTFGQGTKVEIKR
notes: Vk dAb
B25: DOM.150 (other)
VL: DIQMTQSPSSLSASVGDRVTITCRASQGIGTDLNWYQQKPGKAPKLLIYMGSYLQSGVPSRFSGSGSGTDFTLTISSLQPEDFATYYCQQIYSFPITFGQGTKVEIKR
notes: Vk dAb
B26: DOM.154 (other)
VL: DIQMTQSPSSLSASVGDRVTITCRASQDIEEMLHWYQQKPGKAPKLLIYFGSLLQSGVPSRFSGSRSGTDFTLTISSLQPEDFATYYCQQHHTRPYTFGQGTKVEIKR
notes: Vk dAb
B27: DOM.155 (other)
VL: DIQMTQSPSSLSASVGDRVTITCRASQDIGMDLEWYQQIPGKVPKLLIYDASYLQSGVPSRFSGSGSGTDFTLTISSLQPEDFATYYCQQYHKLPATFGQGTKVEIKR
notes: Vk dAb
B28: DOM.156 (other)
VL: DIQMTQSPSSLSASVGDRVTITCRASQDIMDNLEWYQQKPGKAPKLLIYAASWLQSGVPSRFSGSGSGTDFTLTISSLQPEDFATYYCQQYHKLPVTFGQGTKVEIKR
notes: Vk dAb
B29: DOM.157 (other)
VL: DIQMTQSPSSLSASVGDRVTITCRASQNIGEDLEWYQQKPGNAPKLLIYSASHLQSGVPSRFSGSGSGTDFTLTISSLQPEDFATYYCQQYSSYPVTFGQGTKVEIKR
notes: Vk dAb
B30: DOM.158 (other)
VL: DIQMTQSPSSLSASVGDRVTITCRASQPIDEDLEWYQQKPGNAPKLLIYSASYLQSGVPSRFSGSGSGTDFTLTISRLQPEDFATYYCQQYHLLPATFGQGTKVEIKR
notes: Vk dAb
B31: DOM.159 (other)
VL: DIQMIQSPSSLSASVGDRVTITCRASQDINEDLEWYQQKPGKAPKLLIYNASMLQSGVPSRFSGSGSGTDFTLTISSLQPKDFATYYCQQYHTNPTTFGQGTKVEIKR
notes: Vk dAb
B32: DOM.160 (other)
VL: DIQMTQSPSSLSASVGDRVTITCRASQDIEADLEWYQQKPGKAPKLLIYHSSELQSGVPSRFSGSGSGTDFTLTISSLQPEDFATYYCQQYHMSPVTFGQGTKVEIKR
notes: Vk dAb
B33: DOM.161 (other)
VL: DIQMTQSPSSLSASVGDRVTITCRASQDIDSDLEWYQQKPGKAPMLLIYSSSDLQSGVPSRFSGSGSGTDFTLTISSLQPEDFATYYCQQYHSLPVTFGQGTKVEIKR
notes: Vk dAb
B34: DOM.162 (other)
VL: DIQMTQSPSSLSASVGDRVTITCRASQDISDDLEWYQQKPGKAPKLLIYNSSFLQSGVPSRFSGSGSGADFTLTISSLQPEDFATYYCQQYHSLPVTFGQGTKVEIKR
notes: Vk dAb
B35: DOM.163 (other)
VL: DIQMTQSPSSLSASVGDRVTITCRASQDIEGNLEWYQQKPGKAPKLLIYDSSQLQSGVPSRFSGSGSGTDFTLTISSLQPEDFATYYCQQYHHLPTTFGQGTKVEIKR
notes: Vk dAb

target: T1, Recombinant human CD40L; test: CD40L/CD40-Fc receptor binding assay;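 further: plate assay with coated human CD40-Fc, bound ligand detected via HRP anti-biotin antibody and TMB, OD at 450 nm, lower signal indicates stronger inhibition by dAb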

Binding result, binds:
B1
B2
B3
B4
B5
B6
B7
B8
B9
B10
B11
B12
B13
B14
B15
B16
B17
B18
B19
B20
B21
B22
B23
B24
B25
B26
B27
B28
B29
B30
B31
B32
B33
B34
B35

— US20090297524A1 (DOMANTIS, published 2009)
